Assay results taken from US20240400701A1 (LANOVA MEDICINES DEVELOPMENT, published 2024).
Positions count from the first letter of the chain named. Numbers in names are those of the source.

T1: human AMHRII (anti-Mullerian hormone receptor type 2) (human, UniProt Q16671 18-573)
T1 construct: whole, on cells; also called AMHR2; human AMHR2
T1 sequence (looked up): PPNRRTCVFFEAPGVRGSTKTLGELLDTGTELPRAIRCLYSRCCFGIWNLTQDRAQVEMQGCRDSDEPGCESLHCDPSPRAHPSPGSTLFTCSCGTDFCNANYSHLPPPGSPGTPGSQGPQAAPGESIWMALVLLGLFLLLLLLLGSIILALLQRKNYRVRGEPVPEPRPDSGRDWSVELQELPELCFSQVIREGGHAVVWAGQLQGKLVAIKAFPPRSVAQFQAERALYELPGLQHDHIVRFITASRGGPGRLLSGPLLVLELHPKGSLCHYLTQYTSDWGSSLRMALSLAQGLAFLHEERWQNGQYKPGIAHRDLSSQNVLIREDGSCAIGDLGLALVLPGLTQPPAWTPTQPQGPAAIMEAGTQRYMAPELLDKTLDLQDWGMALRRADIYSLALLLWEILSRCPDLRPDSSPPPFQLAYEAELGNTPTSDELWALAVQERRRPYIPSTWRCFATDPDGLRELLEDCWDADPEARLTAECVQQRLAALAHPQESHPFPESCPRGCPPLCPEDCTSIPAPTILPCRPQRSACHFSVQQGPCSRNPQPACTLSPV

B1: 94C4C3 H3L1 hIgG1 (antibody, V domains shown)
VH: QVQLQESGPGLVKPSETLSLTCTVSGYSITSDYAWNWIRQFPGKGLEWMGYISYSGSISYNPSLKSRITISRDTSKNQFFLKLSSVTAADTAVYYCARSRYSWFDYWGQGTLVTVSS
VL: EIVLTQSPGTLSLSPGERATLSCSASESVDTYGNSFMHWYQQKPGQAPRLLIYRASSLESGIPDRFSGSGSGTDFTLTISRLEPEDFAVYYCQQSNEDPYTFGGGTKVEIK
notes: Humanized, human IgG1; also called 94C4C3 H3L1 hlgG1
B2: 94C4C3 H3L3 hIgG1 (antibody, V domains shown)
VH: B1 VH
VL: B1 VL with A47P, D64V, G72R, L82V, P84A, V108L
notes: Humanized, human IgG1; also called 94C4C3 H3L3 hlgG1
B3: 94C4C3 H4L1 hIgG1 (antibody, V domains shown)
VH: B1 VH with S25T, G45K, K82Q
VL: B1 VL
notes: Humanized, human IgG1; also called 94C4C3 H4L1 hlgG1
B4: 94C4C3 H4L2 hIgG1 (antibody, V domains shown)
VH: B1 VH with S25T, G45K, K82Q
VL: B1 VL with A47P, D64V, G72R
notes: Humanized, human IgG1; also called 94C4C3 H4L2 hlgG1
B5: 94C4C3 H3L4 hIgG1 (antibody, V domains shown)
VH: B1 VH
VL: B1 VL with E1D, L13V, A47P, R49K, D64V, G72R, L82V, P84A, V108L
notes: Humanized, human IgG1; also called 94C4C3 H3L4 hlgG1
B6: 94C4C3 H4L3 hIgG1 (antibody, V domains shown)
VH: B1 VH with S25T, G45K, K82Q
VL: B1 VL with A47P, D64V, G72R, L82V, P84A, V108L
notes: Humanized, human IgG1; also called 94C4C3 H4L3 hlgG1
B7: 94C4C3 H4L4 hIgG1 (antibody, V domains shown)
VH: B1 VH with S25T, G45K, K82Q
VL: B1 VL with E1D, L13V, A47P, R49K, D64V, G72R, L82V, P84A, V108L
notes: Humanized, human IgG1; also called 94C4C3 H4L4 hlgG1
B8: 94C4C3 H3L2 hIgG1 (antibody, V domains shown)
VH: B1 VH
VL: B1 VL with A47P, D64V, G72R
notes: Humanized, human IgG1; also called 94C4C3 H3L2 hlgG1
B9: 31D9B3 VH1.3-VL2 hIgG1 (antibody, V domains shown)
VH: QVQLVQSGAEVKKPGASVKVSCKASGYTFTDYWVSWVRQAPGQGLEWMGEIYPKNQVSNFNEKFKGRVTMTTDTSTSTAYMELRSLRSDDTAVYYCARQRDYWGQGTLVTVSS
VL: DVVMTQSPLSLPVTLGQPASISCRSSQSLEYGDGYTYLEWYLQRPGQSPRLLIYGVSNRFSGVPDRFSGSGSGTDFTLKISRVEAEDVGVYYCFQATHDPNTFGQGTKLEIK
notes: Humanized, PTM de-risked (VH G55Q), human IgG1; also called 31D9B3 VH1.3-VL2 hlgG1
B10: 31D9B3 H1L2 hIgG1 (antibody, V domains shown)
VH: B9 VH with Q56G
VL: B9 VL
notes: Humanized, human IgG1; also called 31D9B3 H1L2 hlgG1; 31D9B3 VH1-VL2 hlgG1
B11: 31D9B3 H2L2 hIgG1 (antibody, V domains shown)
VH: B9 VH with K12V, M48I, Q56G, T72V, A97T
VL: B9 VL
notes: Humanized, human IgG1; also called 31D9B3 H2L2 hlgG1
B12: 31D9B3 H2L3 hIgG1 (antibody, V domains shown)
VH: B9 VH with K12V, M48I, Q56G, T72V, A97T
VL: B9 VL with S68I, Q105A
notes: Humanized, human IgG1; also called 31D9B3 H2L3 hlgG1
B13: 31D9B3 H1L3 hIgG1 (antibody, V domains shown)
VH: B9 VH with Q56G
VL: B9 VL with S68I, Q105A
notes: Humanized, human IgG1; also called 31D9B3 H1L3 hlgG1
B14: 31D9B3 H2L4 hIgG1 (antibody, V domains shown)
VH: B9 VH with K12V, M48I, Q56G, T72V, A97T
VL: B9 VL with M4L, R50Q, S68I, A85P, Q105A
notes: Humanized, human IgG1; also called 31D9B3 H2L4 hlgG1
B15: 31D9B3 H1L4 hIgG1 (antibody, V domains shown)
VH: B9 VH with Q56G
VL: B9 VL with M4L, R50Q, S68I, A85P, Q105A
notes: Humanized, human IgG1; also called 31D9B3 H1L4 hlgG1
B16: 31D9B3 H2L1 hIgG1 (antibody, V domains shown)
VH: B9 VH with K12V, M48I, Q56G, T72V, A97T
VL: B9 VL with Y41F, L42Q, L51R
notes: Humanized, human IgG1; also called 31D9B3 H2L1 hlgG1
B17: 31D9B3 H1L1 hIgG1 (antibody, V domains shown)
VH: B9 VH with Q56G
VL: B9 VL with Y41F, L42Q, L51R
notes: Humanized, human IgG1; also called 31D9B3 H1L1 hlgG1
B18: 31D9B3 H4L3 hIgG1 (antibody, V domains shown)
VH: QVQLVQSGAEVVKPGASVKMSCKASGYTFTDYWVSWVKQSPGQGLEWIGEIYPKNGVSNFNEKFKGKATLTVDKSTSTAYMELRRLRSDDTAVFYCTRQRDYWGQGVLVTVSS
VL: B9 VL with S68I, Q105A
notes: Humanized, human IgG1; also called 31D9B3 H4L3 hlgG1
B19: 31D9B3 H4L2 hIgG1 (antibody, V domains shown)
VH: B18 VH
VL: B9 VL
notes: Humanized, human IgG1; also called 31D9B3 H4L2 hlgG1
B20: 31D9B3 H3L4 hIgG1 (antibody, V domains shown)
VH: B18 VH with V12K, K13V, K38R, K67R, A68V, R85S, F94Y
VL: B9 VL with M4L, R50Q, S68I, A85P, Q105A
notes: Humanized, human IgG1; also called 31D9B3 H3L4 hlgG1
B21: 31D9B3 H4L1 hIgG1 (antibody, V domains shown)
VH: B18 VH
VL: B9 VL with Y41F, L42Q, L51R
notes: Humanized, human IgG1; also called 31D9B3 H4L1 hlgG1
B22: 31D9B3 H4L4 hIgG1 (antibody, V domains shown)
VH: B18 VH
VL: B9 VL with M4L, R50Q, S68I, A85P, Q105A
notes: Humanized, human IgG1; also called 31D9B3 H4L4 hlgG1
B23: 31D9B3 H3L1 hIgG1 (antibody, V domains shown)
VH: B18 VH with V12K, K13V, K38R, K67R, A68V, R85S, F94Y
VL: B9 VL with Y41F, L42Q, L51R
notes: Humanized, human IgG1; also called 31D9B3 H3L1 hlgG1
B24: 31D9B3 H3L2 hIgG1 (antibody, V domains shown)
VH: B18 VH with V12K, K13V, K38R, K67R, A68V, R85S, F94Y
VL: B9 VL
notes: Humanized, human IgG1; also called 31D9B3 H3L2 hlgG1
B25: 31D9B3 H3L3 hIgG1 (antibody, V domains shown)
VH: B18 VH with V12K, K13V, K38R, K67R, A68V, R85S, F94Y
VL: B9 VL with S68I, Q105A
notes: Humanized, human IgG1; also called 31D9B3 H3L3 hlgG1

What follows are binders tested against T1, human AMHRII (anti-Mullerian hormone …) (assay: FACS on CHO-K1 cells over-expressing human AMHR2).
Method: (§1) CHO-K1 cells over-expressed AMHR2 were harvested from flasks. 100 μl of 1×10⁶ cells/ml of cells were incubated with the humanized antibodies in 3-fold serial dilutions starting from 300 nM to 0.001 nM for 30 minutes on ice. After being washed with 200 μl of FACS buffer twice, cells were incubated with secondary antibody for 30 minutes on ice. Cells were washed with 200 μl of FACS buffer twice and analyzed by FACS.

EC50 [nM]	Top (MFI)	Binder
1.32	51000	B1
1.03	46300	B2
1.12	49500	B3
1.02	48700	B4
1.35	48100	B5
1.16	51100	B6
1.09	57900	B7
1.23	47700	B8

Molecular target: T1, human AMHRII (anti-Mullerian hormone …)
Assay: FACS on CHO-K1 cells over-expressing human AMHR2
Remark: another data set of the same source
Method: as §1

EC50 [nM]	Top (MFI)	Binder
1.18	28000	B9

Molecular target: T1, human AMHRII (anti-Mullerian hormone …)
Assay: FACS on CHO-K1 cells over-expressing human AMHR2
Remark: another data set of the same source
Method: as §1

EC50 [nM]	Top (MFI)	Binder
1.49	36200	B10
1.58	37900	B11
1.28	36700	B12
1.36	34700	B13
1.67	39200	B14
1.42	34100	B15
22.5	19100	B16
89.1	8940	B17

The binders below were run against T1, human AMHRII (anti-Mullerian hormone …) (assay: FACS on Rko cells over-expressing human AMHR2).
Method: as §1, with “Rko” for “CHO-K1”, “over-expressing” for “over-expressed”, “primary PTM” for “the humanized”

EC50 [nM]	Top (MFI)	Binder
1.21	18300	B10
0.976	17900	B9

Molecular target: T1, human AMHRII (anti-Mullerian hormone …)
Assay: FACS on CHO-K1 cells over-expressing human AMHR2
Remark: another data set of the same source
Method: as §1

EC50 [nM]	Top (MFI)	Binder
0.83	36000	B18
0.84	36200	B19
1.01	36400	B20
2.18	16100	B21
0.75	37200	B22
3.01	19600	B23
1.05	37900	B24
1.3	38000	B25

Molecular target: T1, human AMHRII (anti-Mullerian hormone …)
Assay: FACS on CHO-K1 cells over-expressing human AMHR2
Remark: another data set of the same source
Method: as §1

EC50 [nM]	Top (MFI)	Binder
1.06	26700	B10
